Assay: soluble on expression in E. coli; label from the status in PepcDB or PDB records
In the case of “HEIPYDNTSLPAVTFMQPSAKKNLLIFGGYDSNLEELILWFSPLRNNGYNLIIFDGPGQGNMLFKKEKSHFIMNFEKPVAAVLDYFSLDRVAALGLSWGGFFVMRAAAFEKRIEKIIALDIFYQGLDALTIAMNPVLAFIFKTLVNFKCKTWIDVLLTHAMTRDLDLNWKIKRGYQLTGTKTPYDLIQNIKKHNMKGLGPLINQEVLLLAGEKDQYVPVKRLGQIKKELSNAAEIKTHLFTQESGGEQHCQAGSNLALLAIKDFLK”, the “soluble on expression in E. coli” value is reported as “not soluble”.
With “MGSDKIHHHHHHMQEIHTIMKHMDALIADPSAAAFKATLPFAELLEKLHNKKALFDAALAKSAERADAGRIIGKTSHIDALAYLLDISKSEAFRRTKRAEEHYGNPSPEPSSEELAKETPEEKLAREEKEKQDLAEQAEANRIAREHGISAEKQDTIRYELEKLNDNTSLSRASLRKLAMQEATSRTPEDLRNWTRNKVIRINPTAKDPLAAVKKRSLSIGRQDHDGGAKASLYLDAKGLALLKSLMSKAKPGHLLEDSLAEDKRTKPQRQYDAFADILHRAHSDLLPARSGVGTILVSLSAKDVTNLKASGPDHRYPTSTGIKLTPLEILRLGAAKYDFVTVLDSESGRPLHLARTQRTASLYQRLALFASELVCTREGCDSPFEDNEIHHIRSWLDGGPTDIENITNICPHDHGNNNDQRDGKDNMGHMNIDPTTGRVGYQPADRRKPMRFNNTAAAAESGGAQART” the “soluble on expression in E. coli” value was “not soluble”.
In the case of “EPDSVSIPITCCFNVINRKIPIQRLESYTRITNIQCPKEAVIFKTQRGKEVCADPKERWVRDSMKHLDQIFQNLKP”, the “soluble on expression in E. coli” value is reported as “soluble”.
For “MDGYEEYTVLKEWEKTHKNEEIYSIRFGGNYMIDMKDGIKLSTDVYLPDFVDSAKKAPTILMRTPYGKENDKEIYYKYVQRGYAVVIQDVRGRNESEGKWEPMIHEREDGDSTINWIVSQEWSSGIVGMLGASYLGYVQWAAASSGNKHLKALVSIVTSGSPFIDIPRKGGAFVSGMLAWAFMVSRNKVDRSKMVRDDWDDVLNIRPIENIPVEALGYRIEFLEEWLKRVEKDEYWDLMDWHLQKDKINVPALVVSGWYDDNSMGTTEALDVIKDYEKGKRKAILGPWMHNSNTLRDINGISLGNSSLRYDLDYNYLLWFDKYLKGIENNIDTTAPVEYYSVGSNKWKTEE”, the “soluble on expression in E. coli” value was “not soluble”.
In the case of “MGSDKIHHHHHHMLGKTANGLFWMSRYLERAENTARLIETGQRIALTRLGSAEDEWVSILQSAGSLGGFREAYDTHGQDAAVDWMLRGKDNPSSIMSSIASARQNARLVRAAITGEVWEAINATYMTASDLLARKVSARDLPDVLASIRQHTALMRGMVHGTMLRNDIYDFLRIGTFLERADNTARILDVKYYVLLPSVSAVGSSIDNVQWESILRSVSARGGFRMEYGADGGPQEIAHFLIFDKRMPRSLAFCVSKIKDNLRYLNAGQPTPSPSQELVTHLENTYLSHGIEEVFDYGLHEFIEKMLELLLELAHQIQLDYRFYE”, the “soluble on expression in E. coli” value is reported as “not soluble”.
For “EIKQNEQRLNAIVQNLVSGVMLINVDKQVIMTNRTMYQILGETEITGKPFYEVIKSFALSQLIDATFETKTMQQKEIILYFPREMILDASVSPILAENGEITGIILLLHDIT”, the “soluble on expression in E. coli” value was “not soluble”.
For “MNVQETYLKELKARGYQPDEAQQRAVDRLQLCYDEWVAYKARRSSALRKLLVRPELPRGVYMWGGVGRGKSFLMDAFYSCVPVVRKTRLHFHEFMREVHRQLEELRGRADPLDELARRIAKRYRLICFDEFHVSDVADAMILHRLLDQLFANGVQFVMTSNYRPDLLYPDGLHRDRVLPAIALLQEKLDVLNVDAGIDYRKRAMEQVQAYHTPLGAQANSALRDAFAAVAEAPDESPILHIEHREIRAQRKAGGVVWFDFATLCGGPRSQNDYLEIAARFHTVILADVPKMTPRMASEARRFTWLIDVLYDHKVKLLMSAEVPADALYTEGQMANEFHRTVSRIIEMQSREYLEAPRRAVDTTLTLEHHHHHH”, the “soluble on expression in E. coli” value was “not soluble”.
For “MGSDKIHHHHHHMRQGAGLGYRRDLAEGFLQLRNNDRIQFMEIAPENWIKMGGFARYQFDKVAEKIPILIHGLSLSLGGQAPLDKELLSSIKAMIKQYNTPFFSDHLSFCECDGHLYDLLPMPFTDEAVKHTAARIREVQDFLEIQISVENTSYYLHSETSTMNEVEFLNAIVQEANCGIHLDVNNIYVNAVNHGLLDPHVFIDNVDLKRVNYIHIAGHDDEHAATEVQIQTSESFNKIKGDLRHLPPLLVDTHGENVKGTVWDLLEYTYARLSHMPPTLLERDFNFPPFEKLCKEVDIIHQLQQKYVKKRGLSWLKI”, the “soluble on expression in E. coli” value was “not soluble”.
For “MAHHHHHHMSVVRVSITHSSSGIRVPEKRYELSQTIASIKSNIFTHFATPPEQMQLQLIDDRGVKVESSMADDKQLGYYQCRDDFVIHVVDLRPTQQIANFEDVSQVQKYEITEEAYSKREDNARAFRQLMMARQREEAEKAGNPLPKELDADSYKETAEKIHVDDRCQCQPGDRLGTVRFVGRVASLKPGYWIGVEFDEPVGKGDGSVKGTRVFECQPKYGGFLRPDQVTVGDFPPEEF”, the “soluble on expression in E. coli” value was “not soluble”.
In the case of “MFGKTLLRRIACSNLNLKSRKLSGKPRLAIVGSGPAGMFACNGLLRKSNFSVDVFENSPVPFGLVRYGVAPDHQEVKNVINTFDAMFEKNRERLKLFCNVNIGRDITFDELTRGYDAVLLAYGSYKTRTLDIPGSDASNVISGSEFVGWYNGVPNASTPDLTTSNVVIVGNGNVALDCARVLSTASSGLLRISDIPGDRLNVLEGANVKDIKILGRRGPEHVSFTIKELREQFKIKDWDSKLEISEIDAKNLTESLPKLERKKKRLTEVLVKNIGIANGLRQCHFIFHRIPEKIIADSNGKVQEIIVKNNETGQEETYPCGLLIYSIGYQTLVLDGVPQNDKKMIDMKDHCRVNMVAACSSQVYATGWCAHGPHGIIVDTQQQSIFVADQIAADFAQFKDSTSNGVEELLEDRKVPFISWDEWKQIDRQEQDTGKLSGKIREKFTTFEKFLTKLKKCN”, the “soluble on expression in E. coli” value is reported as “not soluble”.
For “MKFKELSPSTYAEEFIRSKILVEEDGTAIKSQRELSADLGVSRNAIKYALKRLQYDGDIRIKERQGIEINKKRDINLLSMEPMSKELKQAEMHIKHISSEIIKTPDSLVDFFGNATELAEIKRIRLDDKDVVSFEISYLDNRKFEDIASVNFNECSLYQILENRYGKLPIYGYENITCVLANESLATKLNVKINTPLYQVDSYNYSDDDKAVEHTAQFLPANKIKYHFKAKNIFDYQEDDDDDII”, the “soluble on expression in E. coli” value was “not soluble”.
In the case of “MNEHHQPFEEIKLINANGAEQWSARQLGKLLGYSEYRHFIPVLTRAKEACENSGHTIDDHFEEILDMVKIGSNAKRALKDIVLSRYACYLVVQNGDPAKPVIAAGQTYFAIQTRRQELADDEAFKQLREDEKRLFLRNELKEHNKQLVEAAQQAGVATATDFAIFQNHGYQGLYGGLDQKAIHQRKGLKKNQKILDHMGSTELAANLFRATQTEEKLKRDGVNSKQQANTTHFDVGRKVRQTIQELGGTMPEELPTPQVSIKQLENSVKITEKK”, the “soluble on expression in E. coli” value is reported as “soluble”.
In the case of “MAGENIIIDLNFAVSANPREVWDVLTDFDRMADFVSNLKESKVVSISEDKFTIFQNGTATYGPIRYPFESIREVRLIPYHKILTHLVSGNMHKLDGTTYLTDETGGTRVVHRTEAIPKVWIPAVVGKVFIEHEVREQFNEMRNEIIRRKRAALKKGHEKQDGRLEHHHHHH”, the “soluble on expression in E. coli” value is reported as “soluble”.
For “MGSDKIHHHHHHMRAVSIVGLGWLGLTLARHLKNLGWKVKGTKRTHEGVEQMRLIRLEAYHLELTPDINADPDDLTALLSVDALVINIPPSQYFFHLQHYVQGVKNLVNEALLNGLQHIIFISSTSVFPDVSGEFDEQSQIVPQSEMSKALLEIEQWLFELKDVDCDIIRFGGLVGEDRHPVYSLAGKDELSAGNMPINLVHVDDCARAIQLLLETPSSQRLYHLVAPQHPTRAEYYSQIAEKLALEAPHFICSEQDPRRVILANKICRELSFVYQCPDPYLMLFERK”, the “soluble on expression in E. coli” value was “not soluble”.
For “DNMFCNKEYCNRLKDENNCISNLQVEDQGNCDTSWIFASKYHLETIRCMKGYEPTKISALYVANCYKGEHKDRCDEGSSPMEFLQIIEDYGFLPAESNYPYNYVKVGEQCPKVEDHWMNLWDNGKILHNKNEPNSLDGKGYTAYESERFHDNMDAFVKIIKTEVMNKGSVIAYIKAENVMGYEFSGKKVKNLCGDDTADHAVNIVGYGNYVNSEGEKKSYWIVRNSWGPYWGDEGYFKVDMYGPTHCHFNFIHSVVIFNVDLPMN”, the “soluble on expression in E. coli” value was “soluble”.
For “SLPAPTQLFFPLIRNCELSRIYGTACYCHHKHLCCSSSYIPQSRLRYTPHPAYATFCRPKENWWQYTQGRRYASTPQKFYLTPPQVNSILKANEYSFKVPEFDGKNVSSILGFDSNQLPANAPIEDRRSAATCLQTRGMLLGVFDGHAGCACSQAVSERLFYYIAVSLLPHETLLEIENAVESGRALLPILQWHKHPNDYFSKEASKLYFNSLRTYWQELIDLNTGESTDIDVKEALINAFKRLDNDISLEAQVGDPNSFLNYLVLRVAFSGATACVAHVDGVDLHVANTGDSRAMLGVQEEDGSWSAVTLSNDHNAQNERELERLKLEHPKSEAKSVVKQDRLLGLLMPFRAFGDVKFKWSIDLQKRVIESGPDQLNDNEYTKFIPPNYHTPPYLTAEPEVTYHRLRPQDKFLVLATDGLWETMHRQDVVRIVGEYLTGMHHQQPIAVGGYKVTLGQMHGLLTERRTKMSSVFEDQNAATHLIRHAVGNNEFGTVDHERLSKMLSLPEELARMYRDDITIIVVQFNSHVVGAYQNQE”, the “soluble on expression in E. coli” value was “not soluble”.
With “MNEQVHARLKALARPMTGEEYLESLRDGREVYFMGERVKDVTTHPAFRNTARMFARWYDRLHELHKEDLERSKDPSGWKWTVPTESGNGWTHPFFVGPRSAEDLLKARDTIAELQRTVYGWGGRSPDYKAAFVGTLGPNAEFYAPYQENARRWYKETQEKLLYWNHAIVNPPVDRHKPVEEVGDVYMHVERETDAGIVVSGAKVVATGSAFTHVNFIAHYGPLPIKDKKFALIFVVPMDAKGVKLISRASYEFIAAKTGSPFDYPLSSRLDENDAILVFDNVLVPWENVFVYGDVEKVNAFFPLSGFVHRFPFQGCTRLAVKLDFIAGLTMKALDVTGASQFRGVQARLGEILTYRNLFWALTEAMARDPMPWVDGYVLPNLWAGLTYRVLAPEVYPKIKDIIERDLASALIYLPSHAKDFQNPQIRRYLDQYVRGNGVDAVTRVKIMKALWDAVGTEFGGRHELYERNYAGNHENIRIEVLGAMEAAGVNEALRAFVDKFLGEYDLEGWKVPDLINPTEA” the “soluble on expression in E. coli” value was “soluble”.
In the case of “MMVVKVKMLYWVDEVGGRAESMEIELKPFGYRTAPITQWEVLIAAEDVEVEKGKPVIVRVEPVFLPGNTLVGPLSIMRHALGTLVDVVECGVPGRVEDEKCISRVLFLPVEDGVIKKGDMVGVLKVFYIKTGLLTRILGLEPPKVELKKGFHEANIVWRDNGNIYREPAKVTILGYMRSHIGVWELLVADETVRVKRGDVLRIRIKEVRLPPNTVVVPLPVMRNAFGTVLDVVQLGKPSRVEEEKTLHQAIFLAVEDGVIEEGDLIGVINVYYVGLGDFKPLVQDKPPQKVRIVYRSGDGIVKREVEVEPFGYRRSPVGKWEALIADESKPVRYGEPVVVKVKRVRVPPKTILYPLHIMRHAYGTVADVFCDCKPWKVEEGGEIKKVVFLPVMDGEIKEGELLGIINLHDVELSPLGRVRQWLDNWLTEMGRTFDEGDWPLWLEHHHHHH”, the “soluble on expression in E. coli” value is reported as “soluble”.
For “DLILPFYKAGKVSFYQGDLDVLINFLEPDVLVNAANGDLRHVGGVARAIDVFTGGKLTKRSKEYLKSSKAIAPGNAVLFENVLEHLSVLNAVGPRNGDSRVEGKLCNVYKAIAKCDGKILTPLISVGIFKVKLEVSLQCLLKTVTDRDLNVFVYTDQERVTIENFFNG”, the “soluble on expression in E. coli” value was “soluble”.

Reference: the DeepSol protein solubility set
